{"source": "ChEMBL document CHEMBL2074354", "about": "“Chlorambucil-taurocholate is transported by bile acid carriers expressed in human hepatocellular carcinomas” (Gastroenterology, 1997)", "proteins": {"B1": {"name": "Hepatic sodium/bile acid cotransporter (Homo sapiens) (protein)", "chain": "MEAHNASAPFNFTLPPNFGKRPTDLALSVILVFMLFFIMLSLGCTMEFSKIKAHLWKPKGLAIALVAQYGIMPLTAFVLGKVFRLKNIEALAILVCGCSPGGNLSNVFSLAMKGDMNLSIVMTTCSTFCALGMMPLLLYIYSRGIYDGDLKDKVPYKGIVISLVLVLIPCTIGIVLKSKRPQYMRYVIKGGMIIILLCSVAVTVLSAINVGKSIMFAMTPLLIATSSLMPFIGFLLGYVLSALFCLNGRCRRTVSMETGCQNVQLCSTILNVAFPPEVIGPLFFFPLLYMIFQLGEGLLLIAIFWCYEKFKTPKDKTKMIYTAATTEETIPGALGNGTYKGEDCSPCTA"}}, "substrate": "[H][C@]12CC[C@]3([H])[C@]([H])(C[C@H](O)[C@]4(C)C(C(C)CCC(=O)NCCS(=O)(=O)O)CC[C@@]34[H])[C@@]1(C)CC[C@H](OCCNC(=O)CCCc1ccc(N(CCCl)CCCl)cc1)C2", "experiment": "TP_TRANSPORTER: uptake in Xenopus laevis oocytes", "type": "functional, cell-based, Oocyte", "data": [{"protein": "B1", "values": [{"measurement": "Km", "result": 11, "unit": "µM"}]}]}
